Assay results: the supplement of paper PMC10065799, “High-throughput profiling of sequence recognition by tyrosine kinases and SH2 domains using bacterial peptide display” (eLife, 2023)

target: FGFR3 (UniProt P22607); test: phosphorylation enrichment, bacterial display (enrichment ratio); higher = better substrate or ligand; peptides without Tyr show the background
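Further: 11-residue human phosphosite peptides and single-mutation variants displayed on the E. coli surface, counted by deep sequencing, each peptide's frequency after selection divided by its frequency in the unselected input library; frequency after pTyr selection over input frequency; kinase dosed for 20-30% of maximal phosphorylation in three min.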

FGFR3, sequence (P22607 whole entry, looked up): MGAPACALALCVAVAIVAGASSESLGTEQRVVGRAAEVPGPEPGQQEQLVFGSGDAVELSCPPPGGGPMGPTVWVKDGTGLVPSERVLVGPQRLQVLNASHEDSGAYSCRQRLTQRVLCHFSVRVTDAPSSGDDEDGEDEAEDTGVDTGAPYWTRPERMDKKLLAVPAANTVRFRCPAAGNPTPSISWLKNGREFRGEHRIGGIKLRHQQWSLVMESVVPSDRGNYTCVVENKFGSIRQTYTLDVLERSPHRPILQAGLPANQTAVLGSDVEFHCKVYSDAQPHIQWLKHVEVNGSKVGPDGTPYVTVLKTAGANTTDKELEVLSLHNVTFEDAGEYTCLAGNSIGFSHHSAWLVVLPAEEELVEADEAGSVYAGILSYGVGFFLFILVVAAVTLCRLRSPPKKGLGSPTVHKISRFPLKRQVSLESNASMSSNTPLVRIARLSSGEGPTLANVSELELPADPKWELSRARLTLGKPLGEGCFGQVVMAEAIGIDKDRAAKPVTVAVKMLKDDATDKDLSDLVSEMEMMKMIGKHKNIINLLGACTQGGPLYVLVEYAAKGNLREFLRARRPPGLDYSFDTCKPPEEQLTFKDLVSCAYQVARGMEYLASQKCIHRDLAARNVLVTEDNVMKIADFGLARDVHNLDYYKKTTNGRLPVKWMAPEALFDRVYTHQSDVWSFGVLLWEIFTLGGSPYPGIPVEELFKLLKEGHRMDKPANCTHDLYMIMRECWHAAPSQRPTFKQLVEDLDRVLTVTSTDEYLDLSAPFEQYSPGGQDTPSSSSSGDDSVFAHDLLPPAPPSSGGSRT

| Sequence | phosphorylation enrichment |
| --- | --- |
| RLGDLYEEEMR [VIM_Y150] | 0.487 |
| VFPIDYFFPPQ [AR_Y552_L548F_YF] | 10.7 |
| KRLAVYQAGAR [APOE_Y180] | 0.365 |
| SADIAYNYRHG [PAH_Y166_F161S] | 0.391 |
| PPAPRYHHLAV [LZTR1_Y119_S122L] | 0.745 |
| GIMEEYQLPFF [BMPR1A_Y453_V450M_YF] | 1.32 |
| IGCHAYGDQFR [IDH1_Y135_R132C_YF] | 0.659 |
| TGDFGYRTPGF [TNS2_Y668_A670T_YF] | 0.517 |
| DLHGIYQKLVI | 1.31 |
| VHVEVYDRPSP | 0.761 |
| DMLYQYLKQIE [RPAP3_Y569] | 2.4 |
| AKIDGYITSFR | 0.573 |
| RTTIHYNYMCN [TP53_Y234_C229R] | 1.6 |
| YKTPIYPYLLP [PLD2_Y578_T577I] | 1.53 |
| AKRKGYDMQVD [NEB_Y2770_R2773Q] | 0.315 |
| AMGAVYQAAAL [HYOU1_Y421] | 0.612 |
| FQQLFYLLQTN [IQGAP2_Y890_YF] | 1.26 |

| Sequence | phosphorylation enrichment |
| --- | --- |
| ETKEDYEKILV [ANXA1_Y335_G333E] | 0.743 |
| KTVQDYLEKFF [MMP8_Y36_YF] | 0.692 |
| LLGFLYFFVCS [SLC34A2_Y109] | 1.81 |
| FRDMDYRSFPR [RBM10_Y41_YF] | 0.482 |
| SGIYQYSIAKF [FOXL2_Y83_I84S] | 1.46 |
| LLNPSYNLPLD [TOM1L1_Y109_R108S] | 1.14 |
| RLAKTYKTTLE [ALB_Y377_E378K] | 0.446 |
| RNPLRYTSILT [OR51B6_Y130_S126N] | 0.738 |
| IRQDHYESLKE [MTR_Y921] | 0.693 |
| TTPGPHRSIFF [MPG_Y71_Y71H_YF] | 0.41 |
| PSARTYCYKQE [KLHDC9_Y175] | 0.907 |
| LLLLFCVVRYC [MPZ_Y177_Y177C] | 2.14 |
| SIRFNYLLDVL [FGFR4_Y237_YF] | 0.747 |
| EIIPFYGMSTF [FNDC3B_Y175_YF] | 0.524 |
| WFPSTYVEEDE [VAV3_Y842] | 0.81 |
| ANNEYYFQVCA | 7.38 |

system: Fer (mouse); test: as above

| Sequence | phosphorylation enrichment |
| --- | --- |
| RLGDLYEEEMR [VIM_Y150] | 0.377 |
| VFPIDYFFPPQ [AR_Y552_L548F_YF] | 0.643 |
| KRLAVYQAGAR [APOE_Y180] | 0.333 |
| SADIAYNYRHG [PAH_Y166_F161S] | 0.469 |
| PPAPRYHHLAV [LZTR1_Y119_S122L] | 0.491 |
| GIMEEYQLPFF [BMPR1A_Y453_V450M_YF] | 0.587 |
| IGCHAYGDQFR [IDH1_Y135_R132C_YF] | 0.55 |
| TGDFGYRTPGF [TNS2_Y668_A670T_YF] | 0.399 |
| DLHGIYQKLVI | 11.4 |
| VHVEVYDRPSP | 0.802 |
| DMLYQYLKQIE [RPAP3_Y569] | 6.39 |
| AKIDGYITSFR | 0.468 |
| RTTIHYNYMCN [TP53_Y234_C229R] | 1.25 |
| YKTPIYPYLLP [PLD2_Y578_T577I] | 0.695 |
| AKRKGYDMQVD [NEB_Y2770_R2773Q] | 0.328 |
| AMGAVYQAAAL [HYOU1_Y421] | 1.63 |
| FQQLFYLLQTN [IQGAP2_Y890_YF] | 0.561 |

| Sequence | phosphorylation enrichment |
| --- | --- |
| ETKEDYEKILV [ANXA1_Y335_G333E] | 0.598 |
| KTVQDYLEKFF [MMP8_Y36_YF] | 0.485 |
| LLGFLYFFVCS [SLC34A2_Y109] | 1.43 |
| FRDMDYRSFPR [RBM10_Y41_YF] | 0.346 |
| SGIYQYSIAKF [FOXL2_Y83_I84S] | 13.4 |
| LLNPSYNLPLD [TOM1L1_Y109_R108S] | 0.808 |
| RLAKTYKTTLE [ALB_Y377_E378K] | 0.624 |
| RNPLRYTSILT [OR51B6_Y130_S126N] | 0.474 |
| IRQDHYESLKE [MTR_Y921] | 0.483 |
| TTPGPHRSIFF [MPG_Y71_Y71H_YF] | 0.328 |
| PSARTYCYKQE [KLHDC9_Y175] | 0.666 |
| LLLLFCVVRYC [MPZ_Y177_Y177C] | 1.14 |
| SIRFNYLLDVL [FGFR4_Y237_YF] | 0.502 |
| EIIPFYGMSTF [FNDC3B_Y175_YF] | 0.897 |
| WFPSTYVEEDE [VAV3_Y842] | 0.638 |
| ANNEYYFQVCA | 0.614 |
